These results are taken from patent publication US20060193821, “Aptamers to the human IL-12 cytokine family and their use as autoimmune disease therapeutics” (published 2006).

The target of series [1] is T1, IL-23 (human, p19/p40 heterodimer) (Homo sapiens, UniProt Q9NPF7;P29460 SEQ:20-189,SEQ:23-328). As to the kind of experiment: filter; 0.1 mg/mL tRNA, 30 min RT. Particulars: tags: R&D Systems, carrier free; label: 5'-32P. Here is the method: (§1) Monitoring Progress of rRfY Selection. Dot blot binding assays were performed throughout the selections to monitor the protein binding affinity of the pools. Trace ³²P-labeled RNA was combined with a dilution series of h-IL-23 and incubated at room temperature for 30 minutes in 1×SHMCK (20 mM Hepes, 120 mM NaCl, 5 mM KCl, 1 mM MgCl₂, 1 mM CaCl₂, pH 7.4) plus 0.1 mg/mL tRNA for a final volume of 20 μL. The binding reactions were analyzed by nitrocellulose filtration using a Minifold I dot-blot, 96-well vacuum filtration manifold (Schleicher & Schuell, Keene, N.H.). A three-layer filtration medium was used, consisting (from top to bottom) of Protran nitrocellulose (Schleicher & Schuell), Hybond-P nylon (Amersham Biosciences) and GB002 gel blot paper (Schleicher & Schuell). RNA that is bound to protein is captured on the nitrocellulose filter, whereas the non-protein bound RNA is captured on the nylon filter. The gel blot paper was included simply as a supporting medium for the other filters. Following filtration, the filter layers were separated, dried and exposed on a phosphor screen (Amersham Biosciences, Piscataway, N.J.) and quantified using a Storm 860 Phosphorimager® blot imaging system (Amersham Biosciences).

The target in series [2] is T1, IL-23 (human, p19/p40 heterodimer). As to the kind of experiment: filter; 0.1 mg/mL tRNA. Particulars: tags: R&D Systems, carrier free. Here is the method:
as §1

The target is the same in series [3]. As to the kind of experiment: cell_activity; TransAM STAT3. The note with it: tags: R&D Systems, carrier free.
The target is the same in series [4]. Kind of series: filter; DPBS with Ca and Mg, 0.1 mg/mL tRNA, 30 min RT. The note with it: tags: R&D Systems, carrier free; label: 32P. Here is the method:
The selection progress was monitored using the dot blot sandwich filter binding assay as described in Example 1A. The 5′-³²P-labeled pool RNA was refolded at 90° C. for 3 minutes and cooled to room temperature for 10 minutes. Next, pool RNA (trace concentration) was incubated with h-IL-23 DPBS plus 0.1 mg/mL tRNA for 30 minutes at room temperature and then applied to a nitrocellulose and nylon filter sandwich in a dot blot apparatus (Schleicher and Schuell). The percentage of pool RNA bound to the nitrocellulose was calculated and monitored approximately every 3 rounds with a single point screen (+/−250 nM h-IL-23). Pool KD measurements were measured using a titration of h-IL-23 protein (R&D, Minneapolis, Minn.) and the dot blot apparatus as described above.
The rRmY h-IL-23 selection was enriched for h-IL-23 binding vs. the naïve pool after 4 rounds of selection (data not shown). The selection stringency was increased and the selection was continued for 8 more rounds. […] The rGmH selection was enriched over the naïve pool binding at Round 10. […] FIG. 7 is a binding curve of rRmY and rGmH pool selection binding to h-IL-23. The pools were cloned using TOPO TA cloning kit (Invitrogen, Carlsbad, Calif.) and individual sequences were generated and tested for binding. A single point binding screen was initially performed on all crude rRmY clone transcriptions using a 1:200 dilution, +/−200 nM IL-23, plus 0.1 mg/mL competitor tRNA. […] The 10 point screen was performed using zero to 480 nM IL-23 in 3 fold serial dilutions. Binding curves were generated (KaleidaGraph v. 3.51, Synergy Software) and KDs were estimated by fitting the data to the equation: fraction RNA bound=amplitude[h-IL-23]/KD+[h-IL-23]). […] There was one group of 6 duplicate sequences and 4 pairs of 2 duplicate sequences out of the rRmY clones generated. […] Clones were also tested from 48 crude rGmH clone transcriptions at a 1:200 dilution and 0.1 mg/mL tRNA was used as competitor.

For series [5], the target named is T2, IL-23 (mouse, p19/p40 heterodimer) (Mus musculus, UniProt Q9EQ14;P43432 SEQ:22-196,SEQ:23-335).
T2 sequence 1: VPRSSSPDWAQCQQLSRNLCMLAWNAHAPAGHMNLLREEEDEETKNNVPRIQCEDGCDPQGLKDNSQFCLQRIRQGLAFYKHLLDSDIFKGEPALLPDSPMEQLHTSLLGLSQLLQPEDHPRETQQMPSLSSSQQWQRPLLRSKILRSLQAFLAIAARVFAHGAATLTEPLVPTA
T2 sequence 2: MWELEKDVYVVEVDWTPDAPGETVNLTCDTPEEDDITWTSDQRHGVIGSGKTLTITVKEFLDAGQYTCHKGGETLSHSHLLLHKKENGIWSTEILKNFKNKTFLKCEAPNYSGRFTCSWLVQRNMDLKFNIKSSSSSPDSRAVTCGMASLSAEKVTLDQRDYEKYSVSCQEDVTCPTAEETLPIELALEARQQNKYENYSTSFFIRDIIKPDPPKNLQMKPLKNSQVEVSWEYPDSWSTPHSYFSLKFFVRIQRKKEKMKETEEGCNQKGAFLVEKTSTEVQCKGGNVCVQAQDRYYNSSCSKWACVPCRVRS
As to the kind of experiment: filter; 1X PBS, 0.1 mg/mL BSA, 30 min RT. Particulars: tags: isolated in-house; label: 32P. The text has this:
Based on visual inspection of the parent clone sequences of the mouse IL-23 rRfY aptamers described in Example 1E, and predicted RNA structures using an RNA folding program (RNAstructure), minimized constructs were designed for each of the seven binding mIL-23 clones. PCR templates for the minimized construct oligos were ordered from Integrated DNA Technologies (Coraville, Iowa). Constructs were PCR amplified, transcribed, gel purified, and tested for binding to mIL-23 using the dot blot binding assay previously described. Trace ³²P-labeled RNA was combined with mIL-23 and incubated at room temperature for 30 min in 1×PBS plus 0.1 mg/mL BSA for a final volume of 30 μL. The reaction was added to a dot blot apparatus (Schleicher and Schuell Minifold-1 Dot Blot, Acrylic). Binding curves were generated as described in previous sections. Table 33 summarizes the protein binding characterization for each rRfY minimized construct that had significant binding to mIL-23.

Series [6] deals with T1, IL-23 (human, p19/p40 heterodimer). Kind of series: filter; -tRNA; competition 6 nM. Particulars: tags: R&D Systems, carrier free. How it is done:
These molecules were gel purified and assayed for IL-23 binding using the dot blot assay as described above and compared to each other and to the parent molecule, ARC979. An 8 point IL-23 titration (0 nM to 300 nM, 3 fold serial dilutions) was used in the binding assay.

The target is the same in series [7]. Kind of series: filter; 1X PBS, tRNA, ssDNA, BSA, 30 min RT. The note with it: tags: R&D Systems, carrier free; label: 32P.
The target in series [8] is IL-12 (human, p35/p40 heterodimer) (Homo sapiens, UniProt P29459;P29460 SEQ:57-253,SEQ:23-328). As to the kind of experiment: filter; 1X PBS, tRNA, ssDNA, BSA, 30 min RT. The note with it: label: 32P.
The target in series [9] is T1, IL-23 (human, p19/p40 heterodimer). Kind of series: filter; no binding detectable. The note with it: tags: R&D Systems, carrier free; label: 5'-32P. The text has this: Following the dRmY selection process for aptamers binding to IL-23 (described in Example 1C above) and determination of the oligonucleotide sequences, the sequences were systematically minimized to obtain shorter oligonucleotide sequences that retain the binding characteristics. On the basis of the IL-23 binding analysis described in Example 1A above and the cell based assay data described in Example 3 below, ARC489 (SEQ ID NO 91) (74mer) was chosen for further characterization. 3 minimized constructs based on clone ARC489 (SEQ ID NO 91) were designed and generated. […] Table 23 includes the binding data for the dRmY minimized aptamers.

T1 sequence (Q9NPF7 20-189, chain 1 of 2): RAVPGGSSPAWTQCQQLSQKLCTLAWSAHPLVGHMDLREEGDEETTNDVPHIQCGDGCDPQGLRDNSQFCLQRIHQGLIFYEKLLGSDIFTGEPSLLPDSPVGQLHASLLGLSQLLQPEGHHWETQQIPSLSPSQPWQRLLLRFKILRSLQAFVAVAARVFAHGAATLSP
T1 sequence (P29460 23-328, chain 2 of 2): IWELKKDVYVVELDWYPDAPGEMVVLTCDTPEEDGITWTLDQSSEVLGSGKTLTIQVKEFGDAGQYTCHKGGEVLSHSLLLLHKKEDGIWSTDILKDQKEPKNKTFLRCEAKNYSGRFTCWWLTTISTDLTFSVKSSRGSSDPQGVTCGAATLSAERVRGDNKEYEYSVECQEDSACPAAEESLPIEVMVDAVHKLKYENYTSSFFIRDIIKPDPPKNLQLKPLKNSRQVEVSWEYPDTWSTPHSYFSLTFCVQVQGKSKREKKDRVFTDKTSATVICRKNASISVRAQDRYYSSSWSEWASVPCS
Sequence of IL-12 (human, p35/p40 heterodimer) (P29459 23-219, chain 1 of 2): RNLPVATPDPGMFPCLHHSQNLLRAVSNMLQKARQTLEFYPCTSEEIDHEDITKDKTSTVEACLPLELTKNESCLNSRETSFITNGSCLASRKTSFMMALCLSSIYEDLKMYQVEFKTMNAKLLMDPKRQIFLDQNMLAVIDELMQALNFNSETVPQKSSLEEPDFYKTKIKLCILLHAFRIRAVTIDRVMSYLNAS
Sequence of IL-12 (human, p35/p40 heterodimer) (P29460 23-328, chain 2 of 2): as the sequence (P29460 23-328, chain 2 of 2) above

B1: Type 1.5 (ssRNA)
RNA: GGAGUACGCCGAAAGGCGCUUCCGAAAGGACGUCCGUAAGGGAUACUCC
modifications: 2'-F all C and U (rRfY)
B1 came in with an equilibrium dissociation constant (Kd) in series [1] of 31.4 nM.

B2: Type 1.4 (ssRNA)
RNA: GGGUACGCCGAAAGGCGCUUCCGAAAGGACGUCCGUAAGGGAUACCC
modifications: 2'-F C,U
On to B2, for which the Kd in [2] amounted to 185 nM. For the same molecule, the IC50 in series [3] amounted to 80 nM.

B3: rRmY clone SEQ 88 (ssRNA)
RNA: GGGAGAGGAGAGAACGUUCUACAUAAGCAGGCUCCGAUAGUAUUCGGGAAGUCGCUGUCGAUCGAUCGAUCGAUG
modifications: 2'-OMe all C and U (rRmY)
Regarding B3, the Kd in [4] amounted to 101 nM.

B4: rRmY clone SEQ 76 (ssRNA)
RNA: GGGAGAGGAGAGAACGUUCUACAACAAAGCAGGCUCAUAGUAAUAUGGAAGUCGCUGUCGAUCGAUCGAUCGAUG
modifications: 2'-OMe all C and U (rRmY)
In the case of B4, the dissociation constant Kd in series [4] came to 77.2 nM.

B5: A10.min6 (ssRNA)
RNA: GGAGUACGCCGAAAGGCGCUCUGAGUACUCAGCGUCCGUAAGGGAUACUCC
modifications: 2'-F C,U
As to B5, the affinity in series [2], expressed as Kd, was 48.3 nM. The molecule further showed an IC50 in series [3] of 250 nM.

B6: ARC1739 (ARC1628 minimer) (ssRNA)
RNA: GGGCACUCAGCCACAGGUGGCUUAAUACUGUAAAGACGUGCCC
modifications: 2'-F all C and U (rRfY)
In turn, B6 returned a Kd in series [5] of 1 nM.

B7: ARC1161 (mixed)
RNA: ACAGGCAAGUAAUUGGGGAGUGCGGGCGGGGUGU
modifications: deoxy A,G; 2'-OMe C,U; PS 19-20 [PS between 19-20; 2'-OMe C,U at 2,6,10,13,14,21,23,27,32,34; deoxy A,G at all other positions]
B7 showed a dissociation constant (Kd) in series [6] of 55 nM.

B8: ARC1634 minimer (ssRNA)
RNA: GGGCACUCAGCCACCUUGGGCUUAAUACCUAUCGGAUGUGCCC
modifications: 2'-F all C and U (rRfY)
B8 had a Kd in series [5] of 19 nM.

B9: ARC489 (mixed)
RNA: GGGAGAGGAGAGAACGUUCUACAGCGCCGGUGGGCGGGCAUUGGGUGGAUGCGCUGUCGAUCGAUCGAUCGAUG
modifications: 2'-deoxy A and G, 2'-OMe C and U (dRmY)
As for B9, the results for the equilibrium dissociation constant (Kd) in [7] and in series [8] were 4 nM and 17.2 nM, respectively.

B10: ARC491 (mixed)
RNA: GGGAGAGGAGAGAACGUUCUACAGCGCCGGUGGGUGGGCAUAGGGUGGAUGCGCUGUCGAUCGAUCGAUCGAUG
modifications: 2'-deoxy A and G, 2'-OMe C and U (dRmY)
As to B10, the dissociation constant (Kd) in series [7] is 17.1 nM; in [8] it was 93 nM.

B11: B10.min4 (ssRNA)
RNA: GGAGCAUACACAAGAAGUGCUUCAUGCGGCAAACUGCAUGACGUCGAAUAGAUAUGCUCC
modifications: 2'-F all C and U (rRfY)
Turning to B11, binding in series [1] was put at a Kd of 36.4 nM.

B12: A10.min5 (ssRNA)
RNA: GGAGCAUACACAAGAAGUUUUUUGUGCUCUGAGUACUCAGCGUCCGUAAGGGAUAUGCUCC
modifications: 2'-F all C and U (rRfY)
B12 came in with a Kd in [1] of 57.8 nM.

B13: ARC490 (mixed)
RNA: GGGAGAGGAGAGAACGUUCUACAGCCUUUUGGGUAAGGGGAGGGGUGCCGGUCGCUGUCGAUCGAUCGAUCGAUG
modifications: 2'-deoxy A and G, 2'-OMe C and U (dRmY)
As to B13, the figures for the equilibrium dissociation constant (Kd) in series [7] and in series [8] were 26 nM and 37.1 nM, respectively.

B14: rRmY clone SEQ 83 (ssRNA)
RNA: GGGAGAGGAGAGAACGUUCUACGCAGGCUGUCGUAGACAAACGAUGAAGUCGCGCUGUCGAUCGAUCGAUCGAUG
modifications: 2'-OMe all C and U (rRmY)
Take B14: the equilibrium dissociation constant (Kd) in [4] is 8.2 nM.

B15: rRmY clone SEQ 80 (ssRNA)
RNA: GGGAGAGGAGAGAACGUUCUACAAGAUAUAAUUAAGGAUAAGUGCAAAGGAGACGCUGUCGAUCGAUCGAUCGAUG
modifications: 2'-OMe all C and U (rRmY)
For B15, the Kd in series [4] stood at 3790 nM.

B16: ARC1633 minimer (ssRNA)
RNA: GGGCACUCAGCCACAGCUCGGUGGCUUAAUAUCUAUGUGAACGUGCCC
modifications: 2'-F all C and U (rRfY)
The molecule B16 displayed a dissociation constant Kd in [5] of 25 nM.

B17: B10.min5 (ssRNA)
RNA: GGAGUACACAAGAAGUGCUUCCGAAAGGACGUCGAAUAGAUACUCC
modifications: 2'-F C,U
B17: the affinity in series [2], expressed as Kd, was 277 nM. Moreover, 80 nM corresponded to half-maximal inhibition in series [3] (IC50).

B18: F11.min2 (ssRNA)
RNA: GGACAUACACAAGAUGUGCUUGAGUUAAAUCUCAUCGUCCCCGUUUGGGGAUAUGUC
modifications: 2'-F all C and U (rRfY)
Consider B18, for which, in series [1], the Kd is 65 nM.

B19: ARC529 (mixed)
RNA: ACAGCGCCGGUGUUUUCAUUGGGUGGAUGCGCUGU
modifications: 2'-deoxy A and G, 2'-OMe C and U (dRmY)
For B19, the binding result in series [9] is reported as “no binding”.

B20: ARC528 (mixed)
RNA: GCGCCGGUGGGCGGGCACCGGGUGGAUGCGCC
modifications: 2'-deoxy A and G, 2'-OMe C and U (dRmY)
Consider B20, for which the binding result in series [9] is on record as “no binding”.
